B1: DVD710 (bispecific antibody, human IgG1, kappa)
heavy: not shown
light: DIQMTQSPSSLSASVGDRVTITCRASQDVSTAVAWYQQKPGKAPKLLIYSASFLYSGVPSRFSGSGSGTDFTLTISSLQPEDFATYYCQQSYTTPPTFGQGTKVEIKRTVAAPDIQMTQSPSSVSASVGDRVTITCRASQGISSWLAWYQQKPGKAPNLLIYEASSLQSGVPSRFGGSGSGTDFTLTISSLQPEDFATYYCQQANGFPWTFGQGTKVEIKRTVAAPSVFIFPPSDEQLKSGTASVVCLLNNFYPREAKVQWKVDNALQSGNSQESVTEQDSKDSTYSLSSTLTLSKADYEKHKVYACEVTHQGLSSPVTKSFNRGEC
notes: DVD-Ig; HC linker short, LC linker short; vectors V1/V2
B2: DVD678 (bispecific antibody, human IgG1, kappa)
heavy: not shown
light: DIQMTQSPSSLSASVGDRVTITCSASQDISNYLNWYQQKPGKAPKVLIYFTSSLHSGVPSRFSGSGSGTDFTLTISSLQPEDFATYYCQQYSTVPWTFGQGTKVEIKRTVAAPSVFIFPPDIQMTQSPSSLSASVGDRVTITCKASENVVSYVSWYQQKPGKAPKLLIYGASNRNTGVPSRFSGSGSGTDFTLTISSLQPEDFATYYCGQSYNYPYTFGQGTKLEIKRTVAAPSVFIFPPSDEQLKSGTASVVCLLNNFYPREAKVQWKVDNALQSGNSQESVTEQDSKDSTYSLSSTLTLSKADYEKHKVYACEVTHQGLSSPVTKSFNRGEC
notes: DVD-Ig; HC linker short, LC linker long; vectors V1/V2
B3: DVD676 (bispecific antibody, human IgG1, kappa)
heavy: not shown
light: DIQMTQSPSSLSASVGDRVTITCRASQVIRRSLAWYQQKPGKAPKLLIYAASNLASGVPSRFSGSGSGTDFTLTISSLQPEDFATYYCQQSNTSPLTFGQGTKVEIKRTVAAPDIQMTQSPSSLSASVGDRVTITCKASENVVSYVSWYQQKPGKAPKLLIYGASNRNTGVPSRFSGSGSGTDFTLTISSLQPEDFATYYCGQSYNYPYTFGQGTKLEIKRTVAAPSVFIFPPSDEQLKSGTASVVCLLNNFYPREAKVQWKVDNALQSGNSQESVTEQDSKDSTYSLSSTLTLSKADYEKHKVYACEVTHQGLSSPVTKSFNRGEC
notes: DVD-Ig; N-term VD AB071 (VEGF), C-term VD AB079 (HGF); HC linker long, LC linker short; vectors V1/V2
B4: DVD680 (bispecific antibody, human IgG1, kappa)
heavy: not shown
light: DIQMTQSPSSLSASVGDRVTITCRASQDVSTAVAWYQQKPGKAPKLLIYSASFLYSGVPSRFSGSGSGTDFTLTISSLQPEDFATYYCQQSYTTPPTFGQGTKVEIKRTVAAPSVFIFPPDIQMTQSPSSLSASVGDRVTITCKASENVVSYVSWYQQKPGKAPKLLIYGASNRNTGVPSRFSGSGSGTDFTLTISSLQPEDFATYYCGQSYNYPYTFGQGTKLEIKRTVAAPSVFIFPPSDEQLKSGTASVVCLLNNFYPREAKVQWKVDNALQSGNSQESVTEQDSKDSTYSLSSTLTLSKADYEKHKVYACEVTHQGLSSPVTKSFNRGEC
notes: as for B2
B5: DVD712 (bispecific antibody, human IgG1, kappa)
heavy: not shown
light: DIQMTQSPSSLSASVGDRVTITCRASQVIRRSLAWYQQKPGKAPKLLIYAASNLASGVPSRFSGSGSGTDFTLTISSLQPEDFATYYCQQSNTSPLTFGQGTKVEIKRTVAAPDIQMTQSPSSVSASVGDRVTITCRASQGISSWLAWYQQKPGKAPNLLIYEASSLQSGVPSRFGGSGSGTDFTLTISSLQPEDFATYYCQQANGFPWTFGQGTKVEIKRTVAAPSVFIFPPSDEQLKSGTASVVCLLNNFYPREAKVQWKVDNALQSGNSQESVTEQDSKDSTYSLSSTLTLSKADYEKHKVYACEVTHQGLSSPVTKSFNRGEC
notes: DVD-Ig; N-term VD AB071 (VEGF), C-term VD AB012 (HGF); HC linker short, LC linker short; vectors V1/V2
B6: DVD682 (bispecific antibody, human IgG1, kappa)
heavy: not shown
light: DIQMTQSPSSLSASVGDRVTITCRASQVIRRSLAWYQQKPGKAPKLLIYAASNLASGVPSRFSGSGSGTDFTLTISSLQPEDFATYYCQQSNTSPLTFGQGTKVEIKRTVAAPSVFIFPPDIQMTQSPSSLSASVGDRVTITCKASENVVSYVSWYQQKPGKAPKLLIYGASNRNTGVPSRFSGSGSGTDFTLTISSLQPEDFATYYCGQSYNYPYTFGQGTKLEIKRTVAAPSVFIFPPSDEQLKSGTASVVCLLNNFYPREAKVQWKVDNALQSGNSQESVTEQDSKDSTYSLSSTLTLSKADYEKHKVYACEVTHQGLSSPVTKSFNRGEC
notes: DVD-Ig; N-term VD AB071 (VEGF), C-term VD AB079 (HGF); HC linker short, LC linker long; vectors V1/V2

The target of the first experiment is T1, VEGF 1-165 aa (UniProt P15692 27-191).
T1 construct: Bought antigen coated on the ELISA plate
T1 sequence (P15692 other isoform, or with tags, fused parts or gaps limits assumed): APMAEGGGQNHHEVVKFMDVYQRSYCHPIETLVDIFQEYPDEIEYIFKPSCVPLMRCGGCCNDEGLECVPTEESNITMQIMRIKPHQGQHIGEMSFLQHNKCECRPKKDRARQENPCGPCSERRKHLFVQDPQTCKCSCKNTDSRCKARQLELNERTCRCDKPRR
Kind of experiment: direct bind ELISA (N-term VD).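 Note: ELISA screen of antibodies for binding to plate-immobilized target antigen.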 In general terms: An ELISA detects its analyte on a solid surface through an enzyme-linked reagent.
Method: Enzyme Linked Immunosorbent Assays to screen for antibodies that bind a desired target antigen were performed as follows. […] Plates were washed four times with PBS containing 0.02% Tween 20. Plates were blocked by the addition of 300 μL/well blocking solution (non-fat dry milk powder, various retail suppliers, diluted to 2% in PBS) for ½ hour at room temperature. Plates were washed four times after blocking with PBS containing 0.02% Tween 20.
Alternatively, one hundred microliters per well of 10 μg/ml of Histidine (His) tagged desired target antigen (R&D Systems, Minneapolis, Minn.) was added to ELISA plates coated with monoclonal mouse anti-polyHistidine antibody as described above and incubated for 1 hour at room temperature. Wells were washed four times with PBS containing 0.02% Tween 20.
Plates were washed 4 times with PBS containing 0.02% Tween 20.
In turn, B1 gave an EC50 of 2.43 nM.
For B2, the EC50 was 0.65 nM.
On the same count and under the same terms, the result for B3 reads 130 nM.
The same measure, in the same setting: then B4, with 12.6 nM.
For B5, the EC50 was 64.2 nM.
On the same count and under the same terms, then B6, with 53.1 nM.

For the next experiment, the target named is T2, HGF-His tag (UniProt P14210 32-728).
T2 construct: Bought antigen coated on the ELISA plate; not shown: His tag
T2 sequence (P14210 32-728 limits assumed): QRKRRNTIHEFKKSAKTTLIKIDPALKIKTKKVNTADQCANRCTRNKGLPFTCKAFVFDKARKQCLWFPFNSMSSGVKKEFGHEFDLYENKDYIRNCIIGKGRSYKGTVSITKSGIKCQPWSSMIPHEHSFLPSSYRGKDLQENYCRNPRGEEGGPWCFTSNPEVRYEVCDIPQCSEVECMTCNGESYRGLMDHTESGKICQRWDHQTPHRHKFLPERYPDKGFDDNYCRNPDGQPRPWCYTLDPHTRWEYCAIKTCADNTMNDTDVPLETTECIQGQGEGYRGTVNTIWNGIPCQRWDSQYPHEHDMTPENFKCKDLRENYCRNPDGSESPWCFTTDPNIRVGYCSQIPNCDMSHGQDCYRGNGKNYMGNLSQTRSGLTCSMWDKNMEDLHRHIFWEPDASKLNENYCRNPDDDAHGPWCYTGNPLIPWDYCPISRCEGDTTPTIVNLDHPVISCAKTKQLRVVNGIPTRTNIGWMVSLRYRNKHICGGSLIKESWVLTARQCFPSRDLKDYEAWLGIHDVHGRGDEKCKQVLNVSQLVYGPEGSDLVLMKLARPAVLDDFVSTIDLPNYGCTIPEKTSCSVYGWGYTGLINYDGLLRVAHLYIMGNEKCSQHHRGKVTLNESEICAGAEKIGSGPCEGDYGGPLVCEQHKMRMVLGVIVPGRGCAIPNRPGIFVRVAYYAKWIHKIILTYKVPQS
The experiment is described as follows: direct bind ELISA (C-term VD).
In turn, B1 displayed an EC50 of 17.8 nM.
Same read-out and setting: the result for B2 reads 4.69 nM; that for B3, 35.8 nM; that for B4, 5.17 nM.
The molecule B5 came in with an EC50 of 37.2 nM.
The molecule B6 returned an EC50 of 6.55 nM.

The EC50 is the concentration that produces a half-maximal response. Higher therefore signals a need for much substance.

The record behind these values is patent publication US20100260668A1 (published 2010).
